± gives the uncertainty stated by the source.

This data set in a line: amyloid nucleation score (Sup35N fusion, yeast selection) (log enrichment); library NNK2; higher = more nucleation; inactive = no reads after selection. A digest of the protocol: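 Psi-negative yeast expressed Sup35N fused to peptides of 20 random codons. They were induced 24 hours with 100 μM copper sulfate, grown 7 days at 30°C without adenine and uracil, and their plasmid inserts from input and output were Illumina-sequenced. The nucleation score is the DiMSum log enrichment of output over input reads, centred on the mode score of non-aggregating sequences. Sequences with under 100 input reads were excluded.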

On to NLTNRYFNFSRTEPCNKYLT, for which the amyloid nucleation score was 0.895 ± 0.81.

SEFRHGSYYSGVTEVRFWVQ had an amyloid nucleation score of 2.26 ± 0.11.

NWVPLLFDY: the amyloid nucleation score result is “inactive”.

RDLARTMI displayed an amyloid nucleation score of 1.67 ± 0.34.

The substance GFTENKIRDVFGVFHFIVGD displayed an amyloid nucleation score of 0.479 ± 0.8.

For the substance YWYASSSSNIWYPEVCKCPV, the amyloid nucleation score was -0.77 ± 0.79.

As to ALSSNPVLSCKLC, the amyloid nucleation score is 6.917 ± 0.027.

For the substance LAGLALITIIDIFGDNGRMI, the amyloid nucleation score stood at 3.2 ± 0.082.

Substance RILFWSYA returned an amyloid nucleation score of -0.407 ± 0.48.

For the substance LLGMVNTQLKGNHSYTYKSG, the amyloid nucleation score is -1.14 ± 0.55.

Take MIGNQNQGVCW: the amyloid nucleation score came out at 0.141 ± 0.29.

For GEPSCATCITVCLVLLSTQM, the amyloid nucleation score was 6.48 ± 0.081.

For HLNCISRGPMWLNDRMCQCP, the amyloid nucleation score was 1.76 ± 0.12.

With CLLHMWIGLSSKVGGVRDA, the amyloid nucleation score was -0.781 ± 0.79.

As for IVSETKITIVC, the amyloid nucleation score is -0.275 ± 0.48.

Substance MVSYKVLEYYVSLITTHLLF displayed an amyloid nucleation score of -0.36 ± 0.49.

On to MIERMSNRGMACLFVETRSG, for which the amyloid nucleation score is -0.149 ± 0.76.

As for GIFIFNAFEEMSVGKDSELL, the amyloid nucleation score was -0.529 ± 0.27.

FFLYFVFCF displayed an amyloid nucleation score of 2.67 ± 0.085.

In turn, MIVLIQKGLWGFDLQAVFVP yielded an amyloid nucleation score of -0.653 ± 1.1.

For LCILTRTYSAQA, the amyloid nucleation score is -0.238 ± 0.49.

Regarding HMSRTPQAVRTSHPRVKNRI, the amyloid nucleation score is -0.026 ± 0.26.

In the case of GFWFFIYVDCVLCVSPTRIN, the amyloid nucleation score is -0.663 ± 0.56.

LWFLS had an amyloid nucleation score of 0.393 ± 0.33.

Substance SSYDLITIKEFIKSGRVK had an amyloid nucleation score of -0.119 ± 0.35.

With YMYPWGP, the amyloid nucleation score is 0.693 ± 0.28.

With LNCTYN, the amyloid nucleation score is -0.311 ± 0.79.

On to FASLFPKAPERTEVSEPYRR, for which the amyloid nucleation score is -0.76 ± 0.5.

Turning to ARSNFLFRHNILFFVYFITS, the amyloid nucleation score was -1.48 ± 1.1.

In turn, QIVWLHCLFRRFSNGATSDD yielded an amyloid nucleation score of -0.122 ± 0.23.

In turn, NQFNVFFASVVLVVGCICNH registered an amyloid nucleation score of 7.622 ± 0.029.

MCTGVPINGFWVCPYDQSGK displayed an amyloid nucleation score of 0.108 ± 0.33.

Consider KQLRSSVSSSYYHGNTVCAE, for which the amyloid nucleation score was determined as 0.794 ± 0.39.

Take HVHGMYSGWCYDKTGQEKGM: the amyloid nucleation score stood at 0.624 ± 0.34.

FSECLKTTENMKITQKGTPV displayed an amyloid nucleation score of 0.459 ± 0.54.

Turning to IPYEKPHRYIVNWECVAGSM, the amyloid nucleation score came to 0.621 ± 0.43.

For HESVHTTHFMAFYC, the amyloid nucleation score was determined as 0.124 ± 0.61.

In turn, APCNKESIKRARGWAVRWSW came in with an amyloid nucleation score of 3.12 ± 0.077.

LSNYARGRVDVTLKNYLLLE showed an amyloid nucleation score of 0.476 ± 0.51.

Consider LGCNDSWEWDFVTPNGTFPF, for which the amyloid nucleation score was -0.445 ± 0.48.

With KRGMRRKGDFTERKVETLVG, the amyloid nucleation score is 2.39 ± 0.11.

Substance PCIGSQFFYSFGGLIK yielded an amyloid nucleation score of -0.736 ± 0.35.

Take FCLVEVWRIYVVCWPWSVGR: the amyloid nucleation score was 0.743 ± 0.47.

Regarding VRSVCRGTHFSK, the amyloid nucleation score is 0.711 ± 0.42.

Substance TLHWSMR displayed an amyloid nucleation score of 8.355 ± 0.034.

IGFSPLCQYHYCAYGCY showed an amyloid nucleation score of 7.695 ± 0.032.

Regarding VDWRNFIGLLNLTDCSDRYH, the amyloid nucleation score was -0.744 ± 0.34.

RRICTGFIRLVGYVYYAAHL yielded an amyloid nucleation score of -0.29 ± 0.24.

As for SESYVLYNIFGFSVKLDEHG, the amyloid nucleation score is -1 ± 1.

As for DLAFFMLHYLHIRRCKDYPR, the amyloid nucleation score entry is “inactive”.

With GDFSPYYCHCYIIMVCGMLG, the amyloid nucleation score result is “inactive”.

Consider CVHLLSVSGWDFQYYFQAFN, for which the amyloid nucleation score turned out to be 1.17 ± 0.13.

NYVYSTCYALDQCQFKYNVQ returned an amyloid nucleation score of 0.655 ± 0.26.

For LYGHSVNMVV, the amyloid nucleation score was -0.224 ± 0.39.

NFENCVFWYNLYCNFD yielded an amyloid nucleation score of 7.516 ± 0.047.

Substance SKLVSYIDWVGSRILRYTCV came in with an amyloid nucleation score of -0.801 ± 1.1.

Substance ENSFLVRKTSH gave an amyloid nucleation score of -0.262 ± 0.36.

Turning to IYSFSASNW, the amyloid nucleation score was 0.048 ± 0.79.

As to WGNVLNLYNR, the amyloid nucleation score stood at 4.53 ± 0.081.

ILYSDFRMYSGRFLSEMVRI gave an amyloid nucleation score of 0.247 ± 0.39.

Regarding ELFRDNTGSSVVGNSRSSDA, the amyloid nucleation score came out at 0.438 ± 0.17.

FHLFSVGTEGTPRRRKFAGD showed an amyloid nucleation score of -0.481 ± 0.78.

Turning to VLSCCIPKKNSYWTVTDQPC, the amyloid nucleation score worked out at 8.266 ± 0.033.

The substance RLCWLEGVIVYRIFGGKLGV came in with an amyloid nucleation score of -1.33 ± 0.44.

WTMRDLCG: the amyloid nucleation score was 0.526 ± 0.3.

The substance FDDEMVRCIFNYRLSGYRPL displayed an amyloid nucleation score of 1.47 ± 0.22.

Take SLNDKFSLMGLICFWWWCLV: the amyloid nucleation score is -0.184 ± 0.79.

Take LGFAMWFTPRFCFTVYNSYD: the amyloid nucleation score was -0.422 ± 1.

Regarding YCMMPATGICVLDVSVCRDT, the amyloid nucleation score stood at 8.289 ± 0.054.

In turn, LIVTLSDRWWEKGASLVESG came in with an amyloid nucleation score of 0.699 ± 0.15.

In the case of SLFLVRKDFMFCLTSLASVR, the amyloid nucleation score was 2.07 ± 0.16.

The substance YVPMQY came in with an amyloid nucleation score of 0.382 ± 0.53.

In turn, CMLMYVYMIDWRPINFMFF gave an amyloid nucleation score of 5.301 ± 0.041.

CTFLRNIGFLYWYVSPLNLG: the amyloid nucleation score result is “inactive”.

KWVGQLTVVMWLKCNPFCFE returned an amyloid nucleation score of 0.257 ± 0.64.

Take YMVGVSITMCCRATLNFSSM: the amyloid nucleation score is 5.21 ± 0.06.

In the case of FMVVC, the amyloid nucleation score is 0.249 ± 0.39.

On to FQIREVGEVLNC, for which the amyloid nucleation score is -0.202 ± 1.1.

VMNDLILSKAVLGFELRLWG returned an amyloid nucleation score of 4.23 ± 0.066.

In turn, NIFRESEAERRALNKFYMSF yielded an amyloid nucleation score of 0.04 ± 0.76.

For LFASALFRMVSAFLEVAIL, the amyloid nucleation score was 0.722 ± 0.43.

As for MFSESE, the amyloid nucleation score is -0.275 ± 0.35.

LRFRGV had an amyloid nucleation score of 0.339 ± 0.28.

Substance TSDPCFFCNST gave an amyloid nucleation score of -0.381 ± 0.79.

For the substance DLCQSHLPCHMRRTSFRQLP, the amyloid nucleation score came out at 0.606 ± 0.36.

For the substance HGLTYIGIKCTYIKRVTWVR, the amyloid nucleation score is 0.389 ± 0.57.

NENKILSDL registered an amyloid nucleation score of -0.585 ± 0.36.

Substance FSCMISIKRFFRVAKNASGY returned an amyloid nucleation score of 4.84 ± 0.084.

On to NSPNCDHASRKLIHR, for which the amyloid nucleation score is 0.07 ± 0.61.

Regarding VSCYACREFMRLIVISGCLC, the amyloid nucleation score was determined as 3.69 ± 0.042.

Take GCVLSVSWWVGSSLVNWGYY: the amyloid nucleation score came to 5.356 ± 0.052.

Substance VDYVGSYTVSEDREENLAKP returned an amyloid nucleation score of 3.75 ± 0.096.

LKLRSVKSFDFVWMIVAAEV: the amyloid nucleation score stood at 0.482 ± 0.26.

Take AYLFHLFIIS: the amyloid nucleation score is -0.017 ± 0.48.

In the case of HIVIGSFD, the amyloid nucleation score entry was “inactive”.

TGHKECVW: the amyloid nucleation score was 0.762 ± 0.47.

AVAASLMFYVCFITADIADM showed an amyloid nucleation score of 0.859 ± 0.74.

Regarding PHKSAGGRLSMFGAKHGDMV, the amyloid nucleation score is 0.822 ± 0.49.

The substance SLWKLGSLMSTFFEL registered an amyloid nucleation score of -0.758 ± 0.45.

For GVFSY, the amyloid nucleation score was -0.967 ± 0.29.

Substance ASELLGYMCDIVASLGVVRY came in with an amyloid nucleation score of 0.747 ± 0.43.

Take GMTVR: the amyloid nucleation score was 0.011 ± 0.54.

AKVCFFKHESPMGQVGAY had an amyloid nucleation score of -1.2 ± 0.54.

CTFHFVSGHTTTGSR: the amyloid nucleation score is 1 ± 0.66.

Substance SSRLAKIHSMGWFFIFLGIS displayed an amyloid nucleation score of -1.22 ± 1.

The substance SGPSFILSWS had an amyloid nucleation score of -0.371 ± 0.63.

HFNLCTQNMSNGYRDCRHT yielded an amyloid nucleation score of 4.68 ± 0.11.

For the substance TSQTCLEVSRSCCVGMRKSK, the amyloid nucleation score is 0.192 ± 1.

On to WRPKPKWFLGGYGWTGERRL, for which the amyloid nucleation score came to 0.418 ± 0.51.

For the substance NNIGS, the amyloid nucleation score entry is “inactive”.

On to QNIKIW, for which the amyloid nucleation score is -1.02 ± 0.55.

FVSVIILCFCVIQPMNLNSV: the amyloid nucleation score was 1.4 ± 0.15.

Turning to YFFFIVLDLYLMSCFGVVCE, the amyloid nucleation score is -1.13 ± 0.76.

With FDGLHVYQCWTPVNIARVEE, the amyloid nucleation score is 0.099 ± 0.62.

For FFISALANR, the amyloid nucleation score result is “inactive”.

As to GVEQFFGRSSAVHL, the amyloid nucleation score is -0.341 ± 0.79.

Regarding YGMVIRCPARVCVQTLFNNA, the amyloid nucleation score turned out to be 4.86 ± 0.094.

With TQNTTYNAYMNLKE, the amyloid nucleation score is -1.24 ± 1.1.

STVVLSHRCLLSCE registered an amyloid nucleation score of -0.656 ± 1.1.

Regarding EWDVLGLRGRANN, the amyloid nucleation score turned out to be 1.36 ± 0.35.

Take KESLAFTSVGVPYVWGLYGE: the amyloid nucleation score is 0.035 ± 0.32.

LYKVYVFYNNNVVMVRLALK: the amyloid nucleation score result was “inactive”.

The substance SFDVWAALNENLPHISYFDQ displayed an amyloid nucleation score of -0.14 ± 1.1.

In the case of QIDYRLIVGRSG, the amyloid nucleation score is 0.32 ± 0.74.

Turning to TWVLSWSIPNCARGFLSWWI, the amyloid nucleation score amounted to 0.672 ± 0.18.

The substance GVDLGIRRAFT gave an amyloid nucleation score of 0.578 ± 0.62.

Regarding LYSMSHCWHVQCWEFDSYVG, the amyloid nucleation score is -0.174 ± 0.23.

As to MFRSVRFVCWSRLIDNRYMQ, the amyloid nucleation score was -0.18 ± 0.34.

Substance TVKCYNL showed an amyloid nucleation score of 0.268 ± 0.46.

Regarding AYSGIFTRNAEVYSDIYLQ, the amyloid nucleation score is -0.499 ± 0.76.

AFYWVWDLDSGICNVSIFRL showed an amyloid nucleation score of -0.995 ± 0.34.

In turn, PIIIDDLMYLGDVDLTMFGE showed an amyloid nucleation score of -0.234 ± 0.74.

PVKPDSVGVRSIMGIVFGYR: the amyloid nucleation score stood at 2.94 ± 0.051.

In the case of KFIEHWYVFGYIFLRFYKFQ, the amyloid nucleation score is -0.623 ± 1.

Regarding RINMPTYLLNWFSCHNYRFS, the amyloid nucleation score amounted to 3.98 ± 0.093.

In turn, GIGLRLCLSDRLWMRSIYVD returned an amyloid nucleation score of 3.56 ± 0.082.

As for NYIVVARFYSRVVFFRV, the amyloid nucleation score result was “inactive”.

In turn, LRPDSNWTGVESLFR displayed an amyloid nucleation score of -0.66 ± 0.55.

As for DPLPMSYRVYSARSW, the amyloid nucleation score was -0.81 ± 1.

Regarding WINPFAQWMNSVQIFK, the amyloid nucleation score is 0.466 ± 0.12.

Values taken from the supplement of paper PMC12042874.
